# B1: Notch homolog 2 N-terminal-like protein A (Homo sapiens), Q7Z3S9 (parent)
# chain: MCVTYHNGTGYCKCPEGFLGEYCQHRDPCEKNRCQNGGTCVAQAMLGKATCRCASGFTGEDCQYSTSHPCFVSRPCLNGGTCHMLSRDTYECTCQVGFTGKECQWTDACLSHPCANGSTCTTVANQFSCKCLTGFTGQKCETDVNECDIPGHCQHGGTCLNLPGSYQCQCLQGFTGQYCDSLYVPCAPSPCVNGGTCRQTGDFTFECNCLPETVRRGTELWERDREVWNGKEHDEN
# partner: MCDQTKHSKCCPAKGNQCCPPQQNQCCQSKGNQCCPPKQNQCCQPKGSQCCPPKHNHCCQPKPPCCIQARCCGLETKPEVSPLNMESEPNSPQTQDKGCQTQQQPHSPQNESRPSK
# B2: G-patch domain and KOW motifs-containing protein (Homo sapiens), Q92917 (parent)
# chain: MADSKEGVLPLTAASTAPISFGFTRTSARRRLADSGDGAGPSPEEKDFLKTVEGRELQSVKPQEAPKELVIPLIQNGHRRQPPARPPGPSTDTGALADGVVSQAVKELIAESKKSLEERENAGVDPTLAIPMIQKGCTPSGEGADSEPRAETVPEEANYEAVPVEAYGLAMLRGMGWKPGEGIGRTFNQVVKPRVNSLRPKGLGLGANLTEAQALTPTGPSRMPRPDEEQEKDKEDQPQGLVPGGAVVVLSGPHRGLYGKVEGLDPDNVRAMVRLAVGSRVVTVSEYYLRPVSQQEFDKNTLDLRQQNGTASSRKTLWNQELYIQQDNSERKRKHLPDRQDGPAAKSEKAAPRSQHWLHRDLRVRFVDNMYKGGQYYNTKMIIEDVLSPDTCVCRTDEGRVLEGLREDMLETLVPKAEGDRVMVVLGPQTGRVGHLLSRDRARSRALVQLPRENQVVELHYDAICQYMGPSDTDDD
# partner: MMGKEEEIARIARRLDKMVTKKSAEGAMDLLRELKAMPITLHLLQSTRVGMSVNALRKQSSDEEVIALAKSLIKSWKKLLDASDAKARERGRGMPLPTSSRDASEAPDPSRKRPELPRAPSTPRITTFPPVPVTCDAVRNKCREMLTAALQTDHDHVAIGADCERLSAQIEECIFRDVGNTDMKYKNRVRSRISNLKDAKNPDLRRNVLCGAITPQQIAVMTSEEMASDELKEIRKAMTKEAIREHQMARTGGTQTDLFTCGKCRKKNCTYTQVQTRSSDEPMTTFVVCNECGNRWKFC
# B3: Ornithine decarboxylase antizyme 3 (Homo sapiens), Q9UMX2 (parent)
# chain: MPCKRCRPSVYSLSYIKRGKTRNYLYPIWSPYAYYLYCYKYRITLREKMLPRCYKSITYKEEEDLTLQPRSCLQCSESLVGLQEGKSTEQGNHDQLKELYSAGNLTVLATDPLLHQDPVQLDFHFRLTSQTSAHWHGLLCDRRLFLDIPYQALDQGNRESLTATLEYVEEKTNVDSVFVNFQNDRNDRGALLRAFSYMGFEVVRPDHPALPPLDNVIFMVYPLERDVGHLPSEPP
# B4: Protein FAM9B (Homo sapiens), Q8IZU0 (parent)
# chain: MAAWGKKHAGKDPVRDECEERNRFTETREEDVTDEHGEREPFAETDEHTGANTKKPEDTAEDLTAKRKRMKMDKTCSKTKNKSKHALRKKQLKRQKRDYIHSLKLLNVLEEYITDEQKEEEEEEGEEEELIRIFQEQQKKWQQYRSVRRERLKEMKLLRDQFVKALEDFEDLCDRVFSDEDSELDN
# partner: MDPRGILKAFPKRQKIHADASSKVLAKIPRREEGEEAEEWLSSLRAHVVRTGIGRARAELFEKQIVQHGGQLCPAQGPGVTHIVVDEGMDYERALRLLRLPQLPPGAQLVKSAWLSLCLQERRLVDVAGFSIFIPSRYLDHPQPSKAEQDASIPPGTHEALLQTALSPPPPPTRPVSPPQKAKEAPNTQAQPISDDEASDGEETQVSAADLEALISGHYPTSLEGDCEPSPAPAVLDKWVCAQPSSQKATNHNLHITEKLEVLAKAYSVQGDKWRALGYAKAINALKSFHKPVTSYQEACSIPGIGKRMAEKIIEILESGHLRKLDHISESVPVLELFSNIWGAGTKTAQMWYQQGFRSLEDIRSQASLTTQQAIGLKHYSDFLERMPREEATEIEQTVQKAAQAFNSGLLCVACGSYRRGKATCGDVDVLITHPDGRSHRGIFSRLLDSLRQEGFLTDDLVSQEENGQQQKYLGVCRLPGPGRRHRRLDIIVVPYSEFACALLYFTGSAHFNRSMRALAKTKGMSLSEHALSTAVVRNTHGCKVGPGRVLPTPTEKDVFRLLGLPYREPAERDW
# B5: FXYD domain-containing ion transport regulator 3 (Homo sapiens), Q14802 (parent)
# chain: MQKVTLGLLVFLAGFPVLDANDLEDKNSPFYYDWHSLQVGGLICAGVLCAMGIIIVMSAKCKCKFGQKSGHHPGETPPLITPGSAQS
# partner: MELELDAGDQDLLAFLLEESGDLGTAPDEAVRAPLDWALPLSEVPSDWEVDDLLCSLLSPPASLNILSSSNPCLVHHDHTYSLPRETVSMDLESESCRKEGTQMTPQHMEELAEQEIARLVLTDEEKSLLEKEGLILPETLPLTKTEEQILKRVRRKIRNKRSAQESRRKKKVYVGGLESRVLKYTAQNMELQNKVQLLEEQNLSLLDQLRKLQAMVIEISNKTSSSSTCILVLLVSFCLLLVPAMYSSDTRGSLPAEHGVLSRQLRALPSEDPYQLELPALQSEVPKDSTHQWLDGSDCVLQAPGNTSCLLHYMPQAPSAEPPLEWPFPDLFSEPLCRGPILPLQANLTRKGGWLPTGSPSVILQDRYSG
# B6: DNA topoisomerase 3-beta-1 (Homo sapiens), O95985 (parent)
# chain: MKTVLMVAEKPSLAQSIAKILSRGSLSSHKGLNGACSVHEYTGTFAGQPVRFKMTSVCGHVMTLDFLGKYNKWDKVDPAELFSQAPTEKKEANPKLNMVKFLQVEGRGCDYIVLWLDCDKEGENICFEVLDAVLPVMNKAHGGEKTVFRARFSSITDTDICNAMACLGEPDHNEALSVDARQELDLRIGCAFTRFQTKYFQGKYGDLDSSLISFGPCQTPTLGFCVERHDKIQSFKPETYWVLQAKVNTDKDRSLLLDWDRVRVFDREIAQMFLNMTKLEKEAQVEATSRKEKAKQRPLALNTVEMLRVASSSLGMGPQHAMQTAERLYTQGYISYPRTETTHYPENFDLKGSLRQQANHPYWADTVKRLLAEGINRPRKGHDAGDHPPITPMKSATEAELGGDAWRLYEYITRHFIATVSHDCKYLQSTISFRIGPELFTCSGKTVLSPGFTEVMPWQSVPLEESLPTCQRGDAFPVGEVKMLEKQTNPPDYLTEAELITLMEKHGIGTDASIPVHINNICQRNYVTVESGRRLKPTNLGIVLVHGYYKIDAELVLPTIRSAVEKQLNLIAQGKADYRQVLGHTLDVFKRKFHYFVDSIAGMDELMEVSFSPLAATGKPLSRCGKCHRFMKYIQAKPSRLHCSHCDETYTLPQNGTIKLYKELRCPLDDFELVLWSSGSRGKSYPLCPYCYNHPPFRDMKKGMGCNECTHPSCQHSLSMLGIGQCVECESGVLVLDPTSGPKWKVACNKCNVVAHCFENAHRVRVSADTCSVCEAALLDVDFNKAKSPLPGDETQHMGCVFCDPVFQELVELKHAASCHPMHRGGPGRRQGRGRGRARRPPGKPNPRRPKDKMSALAAYFV
# partner: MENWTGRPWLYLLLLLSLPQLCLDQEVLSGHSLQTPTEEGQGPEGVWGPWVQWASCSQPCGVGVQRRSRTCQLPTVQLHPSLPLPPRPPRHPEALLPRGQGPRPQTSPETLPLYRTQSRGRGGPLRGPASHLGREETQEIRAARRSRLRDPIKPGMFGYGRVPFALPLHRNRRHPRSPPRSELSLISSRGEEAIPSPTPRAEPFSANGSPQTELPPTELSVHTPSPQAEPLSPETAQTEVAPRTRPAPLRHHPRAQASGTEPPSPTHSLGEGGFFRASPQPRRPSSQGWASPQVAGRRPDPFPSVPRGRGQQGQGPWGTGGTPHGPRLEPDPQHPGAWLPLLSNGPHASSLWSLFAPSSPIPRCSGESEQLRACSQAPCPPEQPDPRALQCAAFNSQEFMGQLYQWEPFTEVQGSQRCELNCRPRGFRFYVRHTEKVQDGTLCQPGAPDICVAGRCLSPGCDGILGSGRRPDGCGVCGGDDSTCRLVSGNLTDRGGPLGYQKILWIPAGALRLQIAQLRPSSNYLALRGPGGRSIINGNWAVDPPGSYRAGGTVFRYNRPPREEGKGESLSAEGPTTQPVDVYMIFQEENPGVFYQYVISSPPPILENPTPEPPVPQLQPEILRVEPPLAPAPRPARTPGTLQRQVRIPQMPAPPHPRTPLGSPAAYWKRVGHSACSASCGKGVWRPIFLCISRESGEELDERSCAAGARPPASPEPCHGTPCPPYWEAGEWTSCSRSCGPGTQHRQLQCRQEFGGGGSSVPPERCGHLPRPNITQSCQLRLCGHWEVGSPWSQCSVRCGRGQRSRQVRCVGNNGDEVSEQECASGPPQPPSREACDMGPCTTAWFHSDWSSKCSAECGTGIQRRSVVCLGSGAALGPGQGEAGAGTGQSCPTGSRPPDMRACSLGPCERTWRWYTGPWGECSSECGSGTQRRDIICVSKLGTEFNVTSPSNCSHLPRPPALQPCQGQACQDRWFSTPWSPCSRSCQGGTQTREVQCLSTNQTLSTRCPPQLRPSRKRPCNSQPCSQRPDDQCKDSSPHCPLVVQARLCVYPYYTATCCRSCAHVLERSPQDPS
# B7: Paraneoplastic antigen-like protein 5 (Homo sapiens), Q96PV4 (parent)
# chain: MALTLLEDWCKGMDMDPRKALLIVGIPMECSEVEIQDTVKAGLQPLCAYRVLGRMFRREDNAKAVFIELADTVNYTTLPSHIPGKGGSWEVVVKPRNPDDEFLSRLNYFLKDEGRSMTDVARALGCCSLPAESLDAEVMPQVRSPPLEPPKESMWYRKLKVFSGTASPSPGEETFEDWLEQVTEIMPIWQVSEVEKRRRLLESLRGPALSIMRVLQANNDSITVEQCLDALKQIFGDKEDFRASQFRFLQTSPKIGEKVSTFLLRLEPLLQKAVHKSPLSVRSTDMIRLKHLLARVAMTPALRGKLELLDQRGCPPNFLELMKLIRDEEEWENTEAVMKNKEKPSGRGRGASGRQARAEASVSAPQATVQARSFSDSSPQTIQGGLPPLVKRRRLLGSESTRGEDHGQATYPKAENQTPGREGPQAAGEELGNEAGAGAMSHPKPWET
# Variants of: B1
# Conditions: with mcsp_human SMCP
row,effect of a mutation on the interaction,Variant
1,with no effect,R74Q
2,with no effect,A115T

# Variants of: B2
# Conditions: with tcea2_human TCEA2, Q15560
row,effect of a mutation on the interaction,Variant
1,with no effect,V393A
2,with no effect,A129T

# Variants of: B3
# Conditions: with azin1_human AZIN1, O14977
# Sequence of azin1_human AZIN1, O14977 (O14977 whole entry): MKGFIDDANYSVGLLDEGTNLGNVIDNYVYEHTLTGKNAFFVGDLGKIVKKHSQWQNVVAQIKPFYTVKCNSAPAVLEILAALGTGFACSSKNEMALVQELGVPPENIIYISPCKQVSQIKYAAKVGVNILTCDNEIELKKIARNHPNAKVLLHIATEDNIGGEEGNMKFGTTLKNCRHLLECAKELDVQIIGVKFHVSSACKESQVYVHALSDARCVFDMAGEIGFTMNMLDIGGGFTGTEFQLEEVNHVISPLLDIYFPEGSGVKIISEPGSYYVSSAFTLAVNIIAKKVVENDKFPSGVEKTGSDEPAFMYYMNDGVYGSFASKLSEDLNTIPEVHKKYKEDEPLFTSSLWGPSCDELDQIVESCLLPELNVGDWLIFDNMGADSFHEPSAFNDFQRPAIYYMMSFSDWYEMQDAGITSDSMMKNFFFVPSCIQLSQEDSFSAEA
row,effect of a mutation on the interaction,Variant
1,with no effect,R193Q
2,with no effect,V174A

# Variants of: B4
# Conditions: with dpoll_human POLL
row,effect of a mutation on the interaction,Variant
1,with no effect,R23H

# Variants of: B5
# Conditions: with creb3_human CREB3, O43889
row,effect of a mutation on the interaction,Variant
1,disrupting interaction strength,G40S

# Variants of: B6
# Conditions: with atl4_human ADAMTSL4, Q6UY14
row,effect of a mutation on the interaction,Variant
1,disrupting interaction strength,R267W

# Variants of: B7
# Conditions: with arpc4_human ARPC4, P59998
row,effect of a mutation on the interaction,Variant
1,with no effect,R312Q

# Variants of: B7
# Conditions: with zfy26_human ZFYVE26, Q68DK2
# Sequence of zfy26_human ZFYVE26, Q68DK2 (Q68DK2 whole entry): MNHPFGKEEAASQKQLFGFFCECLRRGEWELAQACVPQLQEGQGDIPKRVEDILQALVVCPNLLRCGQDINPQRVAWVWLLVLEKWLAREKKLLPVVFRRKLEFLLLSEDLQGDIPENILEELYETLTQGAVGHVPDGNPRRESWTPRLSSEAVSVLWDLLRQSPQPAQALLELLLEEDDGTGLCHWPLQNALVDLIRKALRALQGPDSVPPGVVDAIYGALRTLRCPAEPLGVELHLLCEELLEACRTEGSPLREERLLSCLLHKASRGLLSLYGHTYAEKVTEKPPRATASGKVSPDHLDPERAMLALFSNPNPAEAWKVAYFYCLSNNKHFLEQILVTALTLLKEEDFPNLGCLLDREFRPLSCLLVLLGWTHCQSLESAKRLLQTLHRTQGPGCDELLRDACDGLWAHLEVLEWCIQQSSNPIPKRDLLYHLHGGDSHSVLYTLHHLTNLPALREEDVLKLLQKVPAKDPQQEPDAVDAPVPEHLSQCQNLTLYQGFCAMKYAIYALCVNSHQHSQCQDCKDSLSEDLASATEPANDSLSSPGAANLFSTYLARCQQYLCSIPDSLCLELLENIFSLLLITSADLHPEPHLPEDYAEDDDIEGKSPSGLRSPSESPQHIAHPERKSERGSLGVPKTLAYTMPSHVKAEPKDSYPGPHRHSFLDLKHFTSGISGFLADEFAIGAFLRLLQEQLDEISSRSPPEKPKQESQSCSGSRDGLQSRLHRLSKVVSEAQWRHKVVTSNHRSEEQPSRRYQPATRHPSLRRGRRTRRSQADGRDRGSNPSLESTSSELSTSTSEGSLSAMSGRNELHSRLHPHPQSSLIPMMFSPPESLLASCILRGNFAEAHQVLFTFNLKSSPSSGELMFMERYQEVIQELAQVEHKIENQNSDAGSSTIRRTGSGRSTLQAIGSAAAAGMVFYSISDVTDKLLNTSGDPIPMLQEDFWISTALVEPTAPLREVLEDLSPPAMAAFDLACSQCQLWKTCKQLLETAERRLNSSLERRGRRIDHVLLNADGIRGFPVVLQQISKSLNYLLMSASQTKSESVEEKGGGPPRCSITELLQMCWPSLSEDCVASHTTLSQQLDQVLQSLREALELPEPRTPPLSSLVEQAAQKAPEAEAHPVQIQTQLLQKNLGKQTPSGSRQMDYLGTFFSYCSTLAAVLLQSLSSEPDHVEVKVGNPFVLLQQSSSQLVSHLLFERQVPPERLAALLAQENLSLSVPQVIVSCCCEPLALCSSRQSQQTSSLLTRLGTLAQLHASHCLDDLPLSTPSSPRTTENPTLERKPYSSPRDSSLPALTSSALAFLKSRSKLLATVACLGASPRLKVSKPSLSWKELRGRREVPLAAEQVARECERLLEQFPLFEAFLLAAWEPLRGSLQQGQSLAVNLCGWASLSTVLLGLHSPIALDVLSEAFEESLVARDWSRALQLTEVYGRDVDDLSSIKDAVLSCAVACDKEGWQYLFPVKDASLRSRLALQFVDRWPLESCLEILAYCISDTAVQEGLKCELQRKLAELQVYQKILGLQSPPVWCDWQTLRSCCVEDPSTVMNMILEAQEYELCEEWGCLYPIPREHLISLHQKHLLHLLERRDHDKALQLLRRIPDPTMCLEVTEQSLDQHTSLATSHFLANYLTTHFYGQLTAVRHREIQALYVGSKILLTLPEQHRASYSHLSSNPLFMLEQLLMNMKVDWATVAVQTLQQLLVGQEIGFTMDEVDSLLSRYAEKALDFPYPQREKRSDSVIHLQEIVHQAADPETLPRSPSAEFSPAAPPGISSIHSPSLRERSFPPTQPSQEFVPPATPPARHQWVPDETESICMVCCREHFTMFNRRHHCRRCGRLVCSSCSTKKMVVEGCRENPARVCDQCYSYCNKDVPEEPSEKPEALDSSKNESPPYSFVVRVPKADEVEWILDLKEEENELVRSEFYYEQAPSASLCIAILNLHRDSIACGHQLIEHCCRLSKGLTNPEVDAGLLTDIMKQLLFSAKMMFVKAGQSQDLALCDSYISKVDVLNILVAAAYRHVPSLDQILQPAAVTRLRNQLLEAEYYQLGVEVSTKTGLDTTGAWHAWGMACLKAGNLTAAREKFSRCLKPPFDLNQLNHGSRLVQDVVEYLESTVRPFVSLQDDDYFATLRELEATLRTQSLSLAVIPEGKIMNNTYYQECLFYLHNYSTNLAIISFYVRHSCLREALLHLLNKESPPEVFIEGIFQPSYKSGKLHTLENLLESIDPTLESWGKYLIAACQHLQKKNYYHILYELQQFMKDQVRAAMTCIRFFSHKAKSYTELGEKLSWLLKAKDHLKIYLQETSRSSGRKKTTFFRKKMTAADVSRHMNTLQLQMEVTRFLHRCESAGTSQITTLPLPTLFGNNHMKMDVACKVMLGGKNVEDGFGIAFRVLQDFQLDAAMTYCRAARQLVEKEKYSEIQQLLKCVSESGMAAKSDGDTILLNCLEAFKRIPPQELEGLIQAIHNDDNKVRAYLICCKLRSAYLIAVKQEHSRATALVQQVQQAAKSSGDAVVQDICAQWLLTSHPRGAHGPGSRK
row,effect of a mutation on the interaction,Variant
1,with no effect,R312Q

# Variants of: B7
# Conditions: with ccnc_human CCNC
row,effect of a mutation on the interaction,Variant
1,with no effect,R312Q

# Variants of: B7
# Conditions: with aapk1_human PRKAA1, Q13131
# Sequence of aapk1_human PRKAA1, Q13131 (Q13131 whole entry, looked up): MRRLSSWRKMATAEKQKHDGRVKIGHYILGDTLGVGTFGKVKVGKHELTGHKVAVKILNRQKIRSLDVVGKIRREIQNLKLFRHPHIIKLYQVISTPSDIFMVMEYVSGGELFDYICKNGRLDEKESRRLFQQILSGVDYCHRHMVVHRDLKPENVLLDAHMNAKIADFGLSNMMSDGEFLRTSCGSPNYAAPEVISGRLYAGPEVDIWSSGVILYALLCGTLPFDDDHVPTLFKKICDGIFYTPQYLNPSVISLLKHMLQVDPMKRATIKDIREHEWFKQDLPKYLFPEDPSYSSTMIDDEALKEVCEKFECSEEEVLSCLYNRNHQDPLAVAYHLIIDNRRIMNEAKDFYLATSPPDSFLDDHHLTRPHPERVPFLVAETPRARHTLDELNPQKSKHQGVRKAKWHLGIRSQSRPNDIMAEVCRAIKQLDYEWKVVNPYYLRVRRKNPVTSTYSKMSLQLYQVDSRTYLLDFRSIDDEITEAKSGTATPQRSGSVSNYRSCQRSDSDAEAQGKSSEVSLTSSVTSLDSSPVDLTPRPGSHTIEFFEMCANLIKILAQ
row,effect of a mutation on the interaction,Variant
1,with no effect,R312Q
